According to publication PMC2566858 (Nucleic Acids Research, 2008):
Like-named read-outs stand apart in the source and are kept apart here.

T1: rGyr_hel (reverse gyrase helicase-like domain) (Thermotoga maritima, UniProt O51934 59-541)
T1 sequence: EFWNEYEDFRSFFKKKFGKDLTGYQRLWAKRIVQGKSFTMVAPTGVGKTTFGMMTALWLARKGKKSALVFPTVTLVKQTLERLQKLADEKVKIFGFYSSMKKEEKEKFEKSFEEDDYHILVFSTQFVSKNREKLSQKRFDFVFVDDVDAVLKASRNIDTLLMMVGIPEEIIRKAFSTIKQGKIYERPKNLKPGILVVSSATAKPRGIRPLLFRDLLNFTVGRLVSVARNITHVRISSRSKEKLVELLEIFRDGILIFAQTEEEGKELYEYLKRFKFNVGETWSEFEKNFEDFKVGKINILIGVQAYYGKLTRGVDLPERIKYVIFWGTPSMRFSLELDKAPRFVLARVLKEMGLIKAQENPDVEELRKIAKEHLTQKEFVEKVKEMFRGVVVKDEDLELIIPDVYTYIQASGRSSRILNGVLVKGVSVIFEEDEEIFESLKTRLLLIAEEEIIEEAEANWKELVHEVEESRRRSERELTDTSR

T2: rGyr_hel K106Q (Thermotoga maritima, UniProt O51934 59-541, K106Q)
T2 sequence: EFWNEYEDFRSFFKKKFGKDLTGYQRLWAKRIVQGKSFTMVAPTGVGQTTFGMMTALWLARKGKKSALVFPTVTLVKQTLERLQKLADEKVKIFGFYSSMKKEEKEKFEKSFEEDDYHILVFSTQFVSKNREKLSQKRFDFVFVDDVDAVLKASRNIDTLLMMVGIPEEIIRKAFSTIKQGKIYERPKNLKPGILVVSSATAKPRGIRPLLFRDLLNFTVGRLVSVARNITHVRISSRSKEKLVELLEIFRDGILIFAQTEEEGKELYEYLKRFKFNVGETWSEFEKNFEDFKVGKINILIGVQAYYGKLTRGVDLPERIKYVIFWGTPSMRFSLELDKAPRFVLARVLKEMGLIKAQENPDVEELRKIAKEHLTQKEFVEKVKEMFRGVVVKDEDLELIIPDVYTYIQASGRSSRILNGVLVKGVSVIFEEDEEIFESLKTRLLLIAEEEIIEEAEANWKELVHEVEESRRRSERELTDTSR

T3: rGyr_fl K106Q/Y851F (Thermotoga maritima, UniProt O51934 1-1104, K106Q;Y851F)
T3 sequence: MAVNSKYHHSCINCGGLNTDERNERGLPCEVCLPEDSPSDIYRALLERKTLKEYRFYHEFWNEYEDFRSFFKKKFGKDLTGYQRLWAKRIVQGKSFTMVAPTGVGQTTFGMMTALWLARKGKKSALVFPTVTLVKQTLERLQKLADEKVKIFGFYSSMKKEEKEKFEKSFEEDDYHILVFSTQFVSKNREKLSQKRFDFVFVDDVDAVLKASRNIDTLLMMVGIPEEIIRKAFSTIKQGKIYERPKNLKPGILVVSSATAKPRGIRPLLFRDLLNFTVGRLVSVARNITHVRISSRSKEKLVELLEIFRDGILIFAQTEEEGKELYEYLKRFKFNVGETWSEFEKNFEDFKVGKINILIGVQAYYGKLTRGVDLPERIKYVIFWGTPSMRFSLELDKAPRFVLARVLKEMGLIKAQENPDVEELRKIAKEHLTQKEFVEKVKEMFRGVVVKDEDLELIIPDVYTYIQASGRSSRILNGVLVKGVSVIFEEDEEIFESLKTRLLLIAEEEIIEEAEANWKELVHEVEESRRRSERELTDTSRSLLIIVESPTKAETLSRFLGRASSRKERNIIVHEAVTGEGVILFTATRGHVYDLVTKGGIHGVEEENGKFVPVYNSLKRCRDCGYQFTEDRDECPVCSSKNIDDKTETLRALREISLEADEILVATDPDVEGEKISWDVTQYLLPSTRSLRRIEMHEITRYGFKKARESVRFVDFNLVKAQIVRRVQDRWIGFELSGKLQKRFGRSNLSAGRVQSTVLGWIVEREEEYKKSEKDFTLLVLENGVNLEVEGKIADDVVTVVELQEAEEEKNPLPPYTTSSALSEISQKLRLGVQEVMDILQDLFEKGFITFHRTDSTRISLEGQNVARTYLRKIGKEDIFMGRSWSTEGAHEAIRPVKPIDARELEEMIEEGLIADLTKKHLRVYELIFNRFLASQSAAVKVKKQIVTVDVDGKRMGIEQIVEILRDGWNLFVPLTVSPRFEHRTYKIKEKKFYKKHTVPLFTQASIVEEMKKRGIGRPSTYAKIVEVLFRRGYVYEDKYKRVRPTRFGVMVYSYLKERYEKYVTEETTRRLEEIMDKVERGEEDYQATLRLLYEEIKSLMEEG


Columns and labels:
Experiment in all cases: fluorescence anisotropy
[1] = molecular target: T1, rGyr_hel (reverse gyrase helicase-like …)
rGyr_hel K106Q = molecular target: T2, rGyr_hel K106Q
rGyr_fl K106Q/Y851F [2] = molecular target: T3, rGyr_fl K106Q/Y851F
rGyr_fl K106Q/Y851F [3] = molecular target: T3, rGyr_fl K106Q/Y851F; remark: listed apart in the source

Binder	Kd [1] [nM]	Kd (rGyr_hel K106Q) [nM]	Kd (rGyr_fl K106Q/Y851F [2]) [nM]	Kd (rGyr_fl K106Q/Y851F [3]) [nM]
60-base ssDNA (ssDNA) DNA: AAGCCAAGCTTCTAGAGTCAGCCCGTGATATTCATTACTTCTTATCCTAGGATCCCCGTT	310 ± 40	200 ± 20		
60 bp dsDNA (dsDNA) DNA 1: AAGCCAAGCTTCTAGAGTCAGCCCGTGATATTCATTACTTCTTATCCTAGGATCCCCGTT DNA 2: AACGGGGATCCTAGGATAAGAAGTAATGAATATCACGGGCTGACTCTAGAAGCTTGGCTT			460 ± 70	710 ± 110
